Reference: PMC2993962, “Identification of a Novel Binding Partner of Phospholipase Cβ1: Translin-Associated Factor X” (PLoS ONE, 2010)
Values belong to the molecule of their own block, whether it stands above or below them.

B1: Gαq (natural protein, rat, UniProt P82471 1-359, looked up)
chain: MTLESIMACCLSEEAKEARRINDEIERQLRRDKRDARRELKLLLLGTGESGKSTFIKQMRIIHGSGYSDEDKRGFTKLVYQNIFTAMQAMVRAMDTLKIPYKYEHNKAHAQLVREVDVEKVSAFENPYVDAIKSLWNDPGIQECYDRRREYQLSDSTKYYLNDLDRVADPSYLPTQQDVLRVRVPTTGIIEYPFDLQSVIFRMVDVGGQRSERRKWIHCFENVTSIMFLVALSEYDQVLVESDNENRMEESKALFRTIITYPWFQNSSVILFLNKKDLLEEKIMYSHLVDYFPEYDGPQRDAQAAREFILKMFVDLNPDSDKIIYSHFTCATDTENIRFVFAAVKDTILQLNLKEYNLV
modifications: thiol-reactive probe CPM, ~1:1 probe:protein (in the binding titrations)
notes: G protein alpha subunit q (Gαq), rat; the nucleotide state is told by the assay; The sentence of the methods leaves open whether Gαq carried a His tag; also called CPM-Gαq(GTPγS); Gαq-GTPγS; source: Sf9 cells, purified
B2: His6-PLCβ1 (phospholipase Cβ1), full length enzyme (enzyme, rat, UniProt P10687 1-1216, looked up)
chain: MAGAQPGVHALQLKPVCVSDSLKKGTKFVKWDDDSTIVTPIILRTDPQGFFFYWTDQNKETELLDLSLVKDARCGKHAKAPKDPKLRELLDVGNIGHLEQRMITVVYGPDLVNISHLNLVAFQEEVAKEWTNEVFSLATNLLAQNMSRDAFLEKAYTKLKLQVTPEGRIPLKNIYRLFSADRKRVETALEACSLPSSRNDSIPQEDFTPDVYRVFLNNLCPRPEIDNIFSEFGAKSKPYLTVDQMMDFINLKQRDPRLNEILYPPLKQEQVQVLIEKYEPNSSLAKKGQMSVDGFMRYLSGEENGVVSPEKLDLNEDMSQPLSHYFINSSHNTYLTAGQLAGNSSVEMYRQVLLSGCRCVELDCWKGRTAEEEPVITHGFTMTTEISFKEVIEAIAECAFKTSPFPILLSFENHVDSPKQQAKMAEYCRLIFGDALLMEPLEKYPLESGVPLPSPMDLMYKILVKNKKKSHKSSEGSGKKKLSEQASNTYSDSSSVFEPSSPGAGEADTESDDDDDDDDCKKSSMDEGTAGSEAMATEEMSNLVNYIQPVKFESFETSKKRNKSFEMSSFVETKGLEQLTKSPVEFVEYNKMQLSRIYPKGTRVDSSNYMPQLFWNAGCQMVALNFQTVDLAMQINMGMYEYNGKSGYRLKPEFMRRPDKHFDPFTEGIVDGIVANTLSVKIISGQFLSDKKVGTYVEVDMFGLPVDTRRKAFKTKTSQGNAVNPVWEEEPIVFKKVVLPSLACLRIAAYEEGGKFIGHRILPVQAIRPGYHYICLRNERNQPLMLPAVFVYIEVKDYVPDTYADVIEALSNPIRYVNLMEQRAKQLAALTLEDEEEVKKEADPGETSSEAPSETRTTPAENGVNHTATLAPKPPSQAPHSQPAPGSVKAPAKTEDLIQSVLTEVEAQTIEELKQQKSFVKLQKKHYKEMKDLVKRHHKKTTELIKEHTTKYNEIQNDYLRRRAALEKSAKKDSKKKSEPSSPDHGSSAIEQDLAALDAEMTQKLIDLKDKQQQQLLNLRQEQYYSEKYQKREHIKLLIQKLTDVAEECQNNQLKKLKEICEKEKKELKKKMDKKRQEKITEAKSKDKSQMEEEKTEMIRSYIQEVVQYIKRLEEAQSKRQEKLVEKHKEIRQQILDEKPKLQMELEQEYQDKFKRLPLEILEFVQEAMKGKVSEDSNHGSAPPSLASDPAKVNLKSPSSEEVQGENAGREFDTPL
modifications: thiol-reactive probe CPM, ~1:1 probe:protein, in the titrations with TRAX (CPM-PLCβ1); unlabelled when added to CPM-Gαq
notes: phospholipase Cβ1, rat, full length enzyme; also called CPM-PLCβ1; His-tagged PLCβ1; source: Sf9 cells, purified

What was measured:
Gαq [1] = biological target: Gαq (UniProt P21279); conditions: cited from earlier work
[2] = biological target: B2; assay: other fluorescence titration; 2 nM CPM-Gαq activated with GTPγS on large unilamellar vesicles of POPC:POPS:POPE (1:1:1); PLCβ1 added; without and with excess TRAX (300 nM in the text, 200 nM in the legend); conditions: both partners purified
Gαq [3] = biological target: B1; assay: as above; conditions: both partners purified
[4] = biological target: B2; assay: other fluorescence titration; 2 nM CPM-labelled PLCβ1 (full length or ΔC) in solution, unlabelled TRAX added stepwise; increase of CPM intensity (excitation 380 nm, emission 420-560 nm) fitted to a bimolecular dissociation constant; apparent; conditions: both partners purified

Molecule: PLCβ1 (from UniProt Q9NQ66)
Kd (Gαq [1]): 0.67 nM

Molecule: B1
binding result [2]: binds

Molecule: B2
fold reduction of binding affinity in the presence of excess TRAX (Gαq [3]): 3 fold

Kd [4]: 8 nM
B3: His-tagged translin-associated factor X (TRAX) (natural protein, human, UniProt Q99598 1-290, looked up)
chain: MSNKEGSGGFRKRKHDNFPHNQRREGKDVNSSSPVMLAFKSFQQELDARHDKYERLVKLSRDITVESKRTIFLLHRITSAPDMEDILTESEIKLDGVRQKIFQVAQELSGEDMHQFHRAITTGLQEYVEAVSFQHFIKTRSLISMDEINKQLIFTTEDNGKENKTPSSDAQDKQFGTWRLRVTPVDYLLGVADLTGELMRMCINSVGNGDIDTPFEVSQFLRQVYDGFSFIGNTGPYEVSKKLYTLKQSLAKVENACYALKVRGSEIPKHMLADVFSVKTEMIDQEEGIS
notes: translin-associated factor X (TRAX), human cDNA from Open Biosystems cloned into pET32a; pET32a may also add thioredoxin and an S tag, depending on the cloning sites (surmise); source: Rosetta cells (pET32a), purified on a Ni-NTA column
